According to the nanobody polyreactivity screen of Harvey et al. (2022):

Assay: yeast display, Sf9 membrane polyspecificity reagent, FACS + sequencing; frameworks hold sequencing errors
Summary of the method: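 Using colony PCR, genes from sorted yeast display clones were amplified, then sequenced on MiSeq at 2 × 250 and filtered by CDR length. The clones had been stained with 10% biotinylated, detergent-solubilized Sf9 membrane reagent for 1 hour at 4 °C and sorted by FACS into low and high (top ~1%) gates on anti-HA and streptavidin fluorescence. Polyreactivity labels come from the gate of origin.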

| Sequence | polyreactivity (PSR sort gate) |
| --- | --- |
| QFHLVESGGGLVQAGGSLRLSCAASGSNILYYVMGWYRQAPRKERELVAAITWDGGSTYYADSVKGRFTISRDNAKNTVYLELNSLIPEDTAVYYCNKVTTYSYYTEPYEYWGQGTQVTVSS | low polyreactivity |
| QFHLVESVGGLFQAGGSLRLSSAASGRNFSIYAMGWYRQAPGKERELVAAISWSGGRTYYADSVKGRFTISRDTAKNTVYLQMNSLKPEDTAVYYCNAENGWADYYRSDYWGQGTQVTVSS | high polyreactivity |
| QFQIVESGGGLVQAGGSLRISCAASVFIFARYAIGWYRQAHGKEREFVAAISSSGGSTYYADSVKGRFTISRDNAKNTVYLQMNSLKPADTAVYYCNVRLRIRSGYWGQGSQVTVSS | high polyreactivity |
| QFQIVESGGGLVQAGGSLRLSCASSGLIFYKYAMGWYRQAPGKERELVARISYTGGITSYADSVKGRFTISRDNAKNTVYLQMNSLKPEDTAVYYCAARYTRPFGPFDYWGQGTQVTVSS | low polyreactivity |
| QFQLEESGGGLVQAGGSLRLSCAASGSTFWYNAMGWYRQAPGKERELVAAISRSGATTYYADSVKGRFTISRDNAKNTVYLQMNSLKPEDTAVYYCNAVISPSSYVRNSDYWGQGTQVTVSS | low polyreactivity |
| QFQLEESGRGLVQAGGSLRLSCAASGRIFRYYAMGWYRQAPGKERELVAGISWRGSSTYYADSVKGRFTISRDNAKNTVYLQMNSLKPEDTAVYYCAARKASGRFGYWGQGTQVTVSS | high polyreactivity |
| QFQLEESRRGLDQAGGSLRLSCAASGSIFTLYDMGWYRQAPGKERELVAAITSGGSTDYADSVKGRFTISRDKAKNTVFLQMNSLKPEDTAVYYCAADTFYIYEDVLYVQGDYYWGQGTQVTVSS | low polyreactivity |
| QFQLGESVGGLVQAGGSLRLSCAGYGSIFLGKAMGWYREATGKEMEFVDAIRISGGSTYYADSVKGRFTISRDNAQYTVYIQMNILKPEDTAVYYCAKFGPRASLYRTGRYYWGQGTQVTVSS | high polyreactivity |
| QFQLLESGRGLVQAGGSLRLSCAASGRTYNVNAMGWYRKAPGKERELVASISSGTSTNYADSVKGRFTITRDNAKNTVYLQLNRLNREDTAVYYCNADFVWNGYSGRIRDYYWGQATQVTVSS | low polyreactivity |
| QFQLVDSGGGLVQAGGSLSLICAASGLIFYTYAMGWYRQAPGKERELVAAISRTRVSTYYADSVKGRFTISRDNAKNTVYLQMNSLKPEYTAVYYCATSRYLKLGYDYWGQGTQVTVSS | high polyreactivity |
| QFQLVDSGGSLVQAGSSLPLSCPASGRTFPYNVMGWYRQAPGKERELFASIDGSGGSTYYADSVKGRFTISRDYAKNTVYLQMNSLNPVDTAVYYCAAVYYQSGNYWYGYLGQSPYDYWGLGTQVTVSS | low polyreactivity |
| QFQLVEAGGGLVQAGGSLRLSCAASGSIFTYAMGWYRQAPGKEREFVAAISRSGGRTYYADSVKGRFTMSRDNAKNTVYFQMNSLKPDDTAVYYCAPLLLKDYDYWGQGTQVTVSS | low polyreactivity |
| QFQLVESGGGLDQAGGSLRLSCAASGITVYYYALGCYRQAPGKERELVAAITSSGGSTYYADSVKGRFTISRDNAKNTVYLQMNSLKPEDTAVYYCAARSYRGSSTYQGHGYWGQGTQVTVSS | high polyreactivity |
| QFQLVESGGGLDQAGGSLRLSCAASGSIFSYYDMGGDRQAPGKDRELVAGNSRGGSTNYADSVKGRFTISRDNAKKTVYLQMNSLKPEDTAVYYCNADQSSRTYPFRLSRRSWLYGYWGQGTQVTVSS | low polyreactivity |
| QFQLVESGGGLDQARGSLRLTCAASGSIFARNAMGWYRQAPGKERELVAAITYSGGNTYYADSVKGRFTISRDNAKNTVYLQMNSLKPEDTAVYYCNKDWYPTYAAYNYYYWGQGTQVTVSS | high polyreactivity |
| QFQLVESGGGLFQAGARLRLSSAASGNIFNWYALGLYRQAPGKEREFVACISTSGGSTYYADSVKGRFTISRDNAKNSVYLQMNSLKPEDTAVYYCNAKFFVYECLPGPSYWYDYWGQGTQVTVSS | high polyreactivity |
| QFQLVESGGGLFQAGGILRLSCAASGRNFLYNAMGWDRQAPGKERELVAAISSRGARTYYADSVKGRFTISRDNAKNTVYFQMNSLKPEDTAVYYCATDSYRYDGIQYLYEYYYWGQGTQVTVSS | high polyreactivity |
| QFQLVESGGGLLQAGGSLRLSCAASGSTFYRYVMGWYRQATGKERELVAAITWRGGTTYYADSVKGRFTISRDNAKNTVYLKMISLKPDDTAVYYCNADRGGLRWFWQVLYDYWGQGTQVTVSS | low polyreactivity |
| QFQLVESGGGLVQAGGSHRLICAASGRTFPYYAKGWYRQAPGKERELVATINTGTSTNYADSVKGRFTISRDNANNTVYLQMHSLKPEDTAVYYCAAATTYGKSEYDYWGQGTQVTVSS | high polyreactivity |
| QFQLVESGGGLVQAGGSLGLSCAASGRSFAQYTMGWYRQAPGKERELVAAISWSGTSTYYADSVKGRFTISRDNAKNTVSLQMNSLKPEDTAVYYCAALGRYSVEYGYWGQGTQVTVSS | high polyreactivity |
| QFQLVESGGGLVQAGGSLRISCAASGSIFRRYAMGWYRQAPWKERELVATISSGTTTNYADSVKGRFTISRDNANNSVYLQLNSLKPEDTSVFYCAAVVYGHIRGPGERKSYWGQGTQVTVSS | high polyreactivity |
| QFQLVESGGGLVQAGGSLRISCDASGRTFWYYTMGWYRKAPGKERELVASITYRGGSTYYADSVKGRFTISRDNAKNTVYLQMNSLKPEDTAVYYCNKPYFTASGDRFGYWGQGTQVTVSS | low polyreactivity |

| Sequence | polyreactivity (PSR sort gate) |
| --- | --- |
| QFQLVESGGGLVQAGGSLRLSCAASAGNFNRYAMGWYRQAPGKEMELVAAISSSGGPTYYADSVKGRFTISRDNAKNTVYLQMNSLKPEDSAVYYCNARYPRLHRTYNYWGQGTQVTVSS | high polyreactivity |
| QFQLVESGGGLVQAGGSLRLSCAASARTFVSNAMGWDRQAPGKERELVADITSGGSTDYADSVKGRFTSSRDNAKNTVYVQMNSVKPEDTAVSYCATDLWRWYGWFDYWGQGTQVTVSS | low polyreactivity |
| QFQLVESGGGLVQAGGSLRLSCAASASTYYYYVMGWSIQAPVKEREVVAAITRSTGSTYYADSVKGRFTISRDNAKNTVYLNKNSLKPEETSVYYCAAEGPKWYYSGAFDYWGQGSQVTVSS | low polyreactivity |
| QFQLVESGGGLVQAGGSLRLSCAASGFIFTNVMGWYRQSPGKERELVAAISGRGTSTYYADSVKGRFTISRDNAKNTVYLQMNSLKPEDTAVYYCAAYFTSRLDYWGQGTQVTVSS | high polyreactivity |
| QFQLVESGGGLVQAGGSLRLSCAASGIISSVYAMGWYRQAPGKERELVAAISGSGGSTYYADSVKGRFTISRDNAKNTVYLQMNSLKPEDTAVYYCAKGYQYQGNSYGYWGQGTQVTVSS | low polyreactivity |
| QFQLVESGGGLVQAGGSLRLSCAASGITFDVNAMGCYIQAPGKERELVASITAGGNTYYSDSVKGRFTISRDNAKNTVYLQMNSLKPVDTAVYFCAAVSTSLYCAGYDYWGQGTQVTVSS | low polyreactivity |
| QFQLVESGGGLVQAGGSLRLSCAASGITFGDNAMGWYRQAPGKERELVAAISWSGDRTFYADSVKGRFTISRDNAKNTVYLQMNSLKPEDTAVYYCNAEIGWHNEGRLSTYDYWGQGTQVTVSS | low polyreactivity |
| QFQLVESGGGLVQAGGSLRLSCAASGITFRAYAMGWYRQAPGKERELVAAITGRFGRTYYADSVKGRFTISRDNENNSVYLQMNSLKPEDTAVYYCNAYLWRVTQTYDYWGQGTQVTVSS | high polyreactivity |
| QFQLVESGGGLVQAGGSLRLSCAASGLIFVYNDMGWYRQAPGKETELVAGITGTGGNTYYADSVKGRFTISRDNEKNTVYLQMNSLKPEDTAVYYCAASHTSYYLRYGYWGQGTQVTVSS | high polyreactivity |
| QFQLVESGGGLVQAGGSLRLSCAASGLTFYAYARGWYRQAPGKDSELVAAISSGGSTSYADSVKGRFTISRDNAKYTVYLQMNSLKPEDTAVYYCAARPISSRFFGWGYNYWGQGTQVTVSS | high polyreactivity |
| QFQLVESGGGLVQAGGSLRLSCAASGRIFDVNAMGWSRQAPGKESELVAAISTRGGGTYYADSVKGRFTISRDNAKNTVYLQMTSLKPEDTAVYYCNVVRRYGGRGIDYWGQGTQVTVSS | low polyreactivity |
| QFQLVESGGGLVQAGGSLRLSCAASGRIFGVYAMGWYRQAPVKERQLVATISLSAGRTYYADSVKGRFTISRDNAKNTVYLQMNSLKPEDTAVYYCAAQSNYSIRRHYYTFRYSYDYWGQGTQVTVSS | high polyreactivity |
| QFQLVESGGGLVQAGGSLRLSCAASGRIFSHYAMGCYRQAPGKERELVAAISSGGITYYADSVNGRFTISRDNAKNTVYLQRNSLKPEDTAVYYCAAVRRRGTTYDYWGQGTQVTVSS | high polyreactivity |
| QFQLVESGGGLVQAGGSLRLSCAASGRILSGNAMGWYRQAPGKERELVAAITNAGITKYADSVKGRFTISRDNAKNTVYLQMNSLKPEDTAVYYCATDRYAYNLYDYWGQGTQVTVSS | low polyreactivity |
| QFQLVESGGGLVQAGGSLRLSCAASGRTFSGNTMGWYRQAPGKERELVAAITGRGGSTYYADSVKGRFTISRDNAKNTVYLQMNCLKPEDTAVYYCAALRYTFAGRFDYWGQGTQVTVSS | high polyreactivity |
| QFQLVESGGGLVQAGGSLRLSCAASGRTFWNYAMGWYRQAPGKERELVAAISVTGTNTYYADSVKGRFTISRDNAKNTVYLQMNSLKPEDTAVYYCAARGRPGLYYWGQGTQVTVSS | high polyreactivity |
| QFQLVESGGGLVQAGGSLRLSCAASGRTLHGYTMGWYRQAPGKVREFVATISSIGGSTYYADSVKGRFTISRDNAKNTVYLQMNSLKPEDTAVYYCNRGRARVIFSGMDYWGQGTQVTVSS | low polyreactivity |
| QFQLVESGGGLVQAGGSLRLSCAASGRTYRYTMGWSRHAPGKERELVAAISRSGGSTYYADSVKGRFTISRDNAKTTVYLQMNSLIPEDTAVYYCAKVIYRYNETYDYWGQGTQVTVSS | high polyreactivity |
| QFQLVESGGGLVQAGGSLRLSCAASGSIFANALGWYRQAPRKERELVAAISFSGGRTFYADSVKGRFTISRDNAKNTVYLQMNSLKPDDTTVYYCNKDYWGYFSYWKSYLYDYWGQGTQVTVSS | high polyreactivity |
| QFQLVESGGGLVQAGGSLRLSCAASGSIFDGNAMGWYRQAPGKERELVAAISRRGGSTYYADSVKGRFTISRYNAKNTVYLQMNSLKPEDTAVYYCNAYLSYFDGNYWGQGTQVTVSS | high polyreactivity |
| QFQLVESGGGLVQAGGSLRLSCAASGSIFELNAKGLYRTAPGKERELVAAITSSGSSTYYADSVKGRFTISRDNAKNTVYLQMNRLKPEDTAVYYCFRPHDYWGQGTQVTESS | low polyreactivity |
